Target: CD4 on uninfected CEM-4 cells (human (endogenous in CEM-T4)) (UniProt P01730)
Test: flow cytometry on cells; uninfected CEM-4 cells incubated 2 h at 4°C with gp120MN (0.24 µg/ml), washed; bound gp120 detected with HIVIG (10 µg/ml) and anti-human secondary antibody; % of cells fluorescing

Substance recombinant gp120MN (natural protein) has a % of cells positive (gp120 bound to cells, detected with HIVIG) of 96.2 % positive.
